Values quoted from earlier work as cited in article PMC6628625.
Where two headings read alike, the source gives them in different places.

Assays:
[1] = biological target: calmodulin (Homo sapiens) (UniProt P0DP23)
[2] = biological target: calmodulin (Homo sapiens) (UniProt P0DP23); remark: listed apart in the source

Row | Substance | Kd [1] [nM] | Kd [2] [nM]
1 | AC (adenylate cyclase toxin) (from UniProt P0DKX7) | 0.2 | 
2 | EF (edema factor) (from UniProt P40136) |  | 20
